Experimental data published in US20060257938A1, “Method of screening for drugs that block ligand binding to a lipid binding protein” (priority 2005, published 2006).

B1: 106N, 72A (protein, listed as Rattus norvegicus)
chain: AFDGTWKVDRNENYEKFMEKMGINVVKRKLGAHDNLKLTITQEGNKFTVKESSNFRNIDVVFELGVDFAYSAADGTELTGTWTMEGNKLVGKFKRVDNGKELIAVNEISGNELIQTYTYEGVEAKRIFKKE
modifications: PEPTIDE (1)...(131) wild-type rat intestinal fatty acid binding protein
B2: 55Y, 72A (protein, listed as Rattus norvegicus)
chain: AFDGTWKVDRNENYEKFMEKMGINVVKRKLGAHDNLKLTITQEGNKFTVKESSNYRNIDVVFELGVDFAYSAADGTELTGTWTMEGNKLVGKFKRVDNGKELIAVREISGNELIQTYTYEGVEAKRIFKKE
modifications: PEPTIDE (1)...(131) wild-type rat intestinal fatty acid binding protein
B3: 14L 72G 117V (protein, listed as Rattus norvegicus)
chain: AFDGTWKVDRNENLEKFMEKMGINVVKRKLGAHDNLKLTITQEGNKFTVKESSNFRNIDVVFELGVDFAYSGADGTELTGTWTMEGNKLVGKFKRVDNGKELIAVREISGNELIQTVTYEGVEAKRIFKKE
modifications: PEPTIDE (1)...(131) wild-type rat intestinal fatty acid binding protein
B4: 49N, 72A (protein, listed as Rattus norvegicus)
chain: AFDGTWKVDRNENYEKFMEKMGINVVKRKLGAHDNLKLTITQEGNKFTNKESSNFRNIDVVFELGVDFAYSAADGTELTGTWTMEGNKLVGKFKRVDNGKELIAVREISGNELIQTYTYEGVEAKRIFKKE
modifications: PEPTIDE (1)...(131) wild-type rat intestinal fatty acid binding protein
B5: 106S, 72A (protein, listed as Rattus norvegicus)
chain: AFDGTWKVDRNENYEKFMEKMGINVVKRKLGAHDNLKLTITQEGNKFTVKESSNFRNIDVVFELGVDFAYSAADGTELTGTWTMEGNKLVGKFKRVDNGKELIAVSEISGNELIQTYTYEGVEAKRIFKKE
modifications: PEPTIDE (1)...(131) wild-type rat intestinal fatty acid binding protein
B6: 14I 38I 72V (protein, listed as Rattus norvegicus)
chain: AFDGTWKVDRNENIEKFMEKMGINVVKRKLGAHDNLKITITQEGNKFTVKESSNFRNIDVVFELGVDFAYSVADGTELTGTWTMEGNKLVGKFKRVDNGKELIAVREISGNELIQTYTYEGVEAKRIFKKE
modifications: PEPTIDE (1)...(131) wild-type rat intestinal fatty acid binding protein
B7: 14L 38M 72A 117F (protein, listed as Rattus norvegicus)
chain: AFDGTWKVDRNENLEKFMEKMGINVVKRKLGAHDNLKMTITQEGNKFTVKESSNFRNIDVVFELGVDFAYSAADGTELTGTWTMEGNKLVGKFKRVDNGKELIAVREISGNELIQTFTYEGVEAKRIFKKE
modifications: PEPTIDE (1)...(131) wild-type rat intestinal fatty acid binding protein
B8: 106T, 72A (protein, listed as Rattus norvegicus)
chain: AFDGTWKVDRNENYEKFMEKMGINVVKRKLGAHDNLKLTITQEGNKFTVKESSNFRNIDVVFELGVDFAYSAADGTELTGTWTMEGNKLVGKFKRVDNGKELIAVTEISGNELIQTYTYEGVEAKRIFKKE
modifications: PEPTIDE (1)...(131) wild-type rat intestinal fatty acid binding protein
B9: 38M 72G 117F (protein, listed as Rattus norvegicus)
chain: AFDGTWKVDRNENYEKFMEKMGINVVKRKLGAHDNLKMTITQEGNKFTVKESSNFRNIDVVFELGVDFAYSGADGTELTGTWTMEGNKLVGKFKRVDNGKELIAVREISGNELIQTFTYEGVEAKRIFKKE
modifications: PEPTIDE (1)...(131) wild-type rat intestinal fatty acid binding protein
B10: 14I 72G 117V (protein, listed as Rattus norvegicus)
chain: AFDGTWKVDRNENIEKFMEKMGINVVKRKLGAHDNLKLTITQEGNKFTVKESSNFRNIDVVFELGVDFAYSGADGTELTGTWTMEGNKLVGKFKRVDNGKELIAVREISGNELIQTVTYEGVEAKRIFKKE
modifications: PEPTIDE (1)...(131) wild-type rat intestinal fatty acid binding protein
B11: 11I, 72A (protein, listed as Rattus norvegicus)
chain: AFDGTWKVDRIENYEKFMEKMGINVVKRKLGAHDNLKLTITQEGNKFTVKESSNFRNIDVVFELGVDFAYSAADGTELTGTWTMEGNKLVGKFKRVDNGKELIAVREISGNELIQTYTYEGVEAKRIFKKE
modifications: PEPTIDE (1)...(131) wild-type rat intestinal fatty acid binding protein
B12: 23L, 72A (protein, listed as Rattus norvegicus)
chain: AFDGTWKVDRNENYEKFMEKMGLNVVKRKLGAHDNLKLTITQEGNKFTVKESSNFRNIDVVFELGVDFAYSAADGTELTGTWTMEGNKLVGKFKRVDNGKELIAVREISGNELIQTYTYEGVEAKRIFKKE
modifications: PEPTIDE (1)...(131) wild-type rat intestinal fatty acid binding protein
B13: 106D, 72A (protein, listed as Rattus norvegicus)
chain: AFDGTWKVDRNENYEKFMEKMGINVVKRKLGAHDNLKLTITQEGNKFTVKESSNFRNIDVVFELGVDFAYSAADGTELTGTWTMEGNKLVGKFKRVDNGKELIAVDEISGNELIQTYTYEGVEAKRIFKKE
modifications: PEPTIDE (1)...(131) wild-type rat intestinal fatty acid binding protein
B14: 106L, 72A (protein, listed as Rattus norvegicus)
chain: AFDGTWKVDRNENYEKFMEKMGINVVKRKLGAHDNLKLTITQEGNKFTVKESSNFRNIDVVFELGVDFAYSAADGTELTGTWTMEGNKLVGKFKRVDNGKELIAVLEISGNELIQTYTYEGVEAKRIFKKE
modifications: PEPTIDE (1)...(131) wild-type rat intestinal fatty acid binding protein
B15: 14I 72A (protein, listed as Rattus norvegicus)
chain: AFDGTWKVDRNENIEKFMEKMGINVVKRKLGAHDNLKLTITQEGNKFTVKESSNFRNIDVVFELGVDFAYSAADGTELTGTWTMEGNKLVGKFKRVDNGKELIAVREISGNELIQTYTYEGVEAKRIFKKE
modifications: PEPTIDE (1)...(131) wild-type rat intestinal fatty acid binding protein
B16: 14L 72A (protein, listed as Rattus norvegicus)
chain: AFDGTWKVDRNENLEKFMEKMGINVVKRKLGAHDNLKLTITQEGNKFTVKESSNFRNIDVVFELGVDFAYSAADGTELTGTWTMEGNKLVGKFKRVDNGKELIAVREISGNELIQTYTYEGVEAKRIFKKE
modifications: PEPTIDE (1)...(131) wild-type rat intestinal fatty acid binding protein
B17: 11Y, 72A (protein, listed as Rattus norvegicus)
chain: AFDGTWKVDRYENYEKFMEKMGINVVKRKLGAHDNLKLTITQEGNKFTVKESSNFRNIDVVFELGVDFAYSAADGTELTGTWTMEGNKLVGKFKRVDNGKELIAVREISGNELIQTYTYEGVEAKRIFKKE
modifications: PEPTIDE (1)...(131) wild-type rat intestinal fatty acid binding protein

How the values were obtained:
Assay type in all cases: binding
[1] = Probe fluorescence ratio response to arachidonic acid relative to ADIFAB2; details: arachidonic acid; response relative to ADIFAB2
Method in brief: (§1)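 Fluorescently labeled rat intestinal FABP variants were read at two emission wavelengths, near the unbound maximum (about 420 to 480 nm) and the FFA-bound maximum (about 495 to 580 nm). R = Fλ1/Fλ2 after subtracting probe-free intensity; ΔR = R+agent − R0, normalized to ADIFAB2 (rI-FABP-L72A).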

[2] = Probe fluorescence ratio response to linolenic acid relative to ADIFAB2; details: response relative to ADIFAB2
Method in brief: as §1

[3] = Probe fluorescence ratio response to linoleic acid relative to ADIFAB2; details: response relative to ADIFAB2
Method in brief: as §1

[4] = Probe fluorescence ratio response to oleic acid relative to ADIFAB2; details: response relative to ADIFAB2
Method in brief: as §1

[5] = Probe fluorescence ratio response to palmitic acid relative to ADIFAB2; details: response relative to ADIFAB2
Method in brief: as §1

| Molecule | DR/DR AA [1] | DR/DR LNA [2] | DR/DR LA [3] | DR/DR OA [4] | DR/DR PA [5] |
| --- | --- | --- | --- | --- | --- |
| B1 | 0.384 | 0.445 | 0.451 | 0.496 | 0.152 |
| B2 | 0.471 | 0.335 | 0.324 | 0.329 | 0.249 |
| B3 | 0.873 | 0.513 | 0.548 | 0.297 | 0.055 |
| B4 | 1.255 | 1.181 | 1.099 | 1.108 | 0.740 |
| B5 | 0.321 | 0.403 | 0.355 | 0.478 | 0.149 |
| B6 | 0.715 | 0.926 | 0.862 | 0.398 | 0.844 |
| B7 | 0.861 | 0.921 | 0.830 | 0.458 | 0.472 |
| B8 | 0.250 | 0.367 | 0.246 | 0.434 | 0.118 |
| B9 | 1.280 | 0.733 | 0.748 | 0.686 | 0.438 |
| B10 | 0.928 | 0.547 | 0.622 | 0.337 | 0.085 |
| B11 | 0.584 | 0.507 | 0.546 | 0.387 | 1.186 |
| B12 | 1.174 | 1.025 | 1.041 | 1.057 | 0.928 |
| B13 | 0.502 | 0.591 | 0.584 | 0.423 | 0.147 |
| B14 | 0.383 | 0.364 | 0.382 | 0.431 | 0.183 |
| B15 | 0.825 | 0.997 | 0.944 | 0.478 | 0.762 |
| B16 | 0.838 | 0.867 | 0.766 | 0.446 | 0.534 |
| B17 | 0.516 | 0.311 | 0.330 | 0.156 | 0.296 |
